Six substances from patent publication US20240301023A1 can be followed below.

Assay [1] deals with Kappa opioid receptor (KOR) (Homo sapiens (Human)) (UniProt P41145). As to the kind of experiment: cell-based or functional assay.
The target is the same in assay [2]. The assay is described as follows: HTRF Tag-Lite KOP ligand binding assay; competition against naltrindole (8 nM). A general note: Time-resolved FRET reads energy transfer from a long-lived donor to a nearby acceptor.
The target is the same in assay [3]. The assay is described as follows: HTRF Tag-Lite KOP ligand binding assay; competition against naltrindole (8 nM); Ki relative to Kd of naltrindole.
Assay [4] deals with Delta opioid receptor (DOR). The assay is described as follows: cell-based or functional assay.
The target of the next assay is Mu opioid receptor (MOR). As to the kind of experiment: cell-based or functional assay.

pIC50, pKi: −log10 of the molar value.

The term pIC50 denotes the negative decadic logarithm of the IC50, by convention in mol/L. A low value points to a large IC50. By pKi is commonly meant the negative decadic logarithm of the Ki, by convention in mol/L. Low values mean a high Ki, high ones a low Ki. In the case of “SEQ ID NO. 19: NH2-Tyr-Sar-(4-NO2)Phe-Leu-NMA-NMA-NH2 (peptide)”, the Activity (EC50, nM), cAMP assay in assay [1] worked out at 31.1 nM. In assay [2], this substance showed a pIC50 of 5.71 and a Log IC50 of -5.71. This substance gave a pKi in assay [3] of 6.74.
As to “SEQ ID NO. 4: NH2-Tyr-Sar-(4-NO2)Phe-Leu-Arg-DArg-NH2 (peptide)”, in assay [1], the Activity (EC50, nM), cAMP assay stood at 8.4 nM; the cAMP assay (ALPHAScreen), result at 1 µM peptide is 34.9; the cAMP assay (ALPHAScreen), result at 10 µM peptide was 40.3. In assay [2], this substance showed a pIC50 of 7.52 and a Log IC50 of -7.52. Also, the pKi in assay [3] was 8.55.
As to “SEQ ID NO. 24: NH2-Tyr-Sar-(4-Cl)Phe-Leu-Arg-DArg-C7H14-CONH2 (peptide)”, in assay [1], the Activity (EC50, nM), cAMP assay was found to be 3.87 nM. Further, in assay [2], the pIC50 is 7.14 and the Log IC50 was -7.14. Further, the pKi in assay [3] is 8.17.
For “SEQ ID NO. 20: NH2-Tyr-Sar-(4-Cl)Phe-Leu-Arg-DArg-Ile-Arg-NH2 (peptide)”, the KOPr desensitisation in HEK293-KOPr cells: reduction in maximal cAMP response after 6 h pretreatment at 1 µM in assay [1] was determined as 50%.
Take “Dyn1-7 (SEQ ID NO. 38: Tyr-Gly-Gly-Phe-Leu-Arg-Arg) (peptide)”: the Activity (EC50, nM), cAMP assay in assay [4] stood at 870 nM; in assay [1] it was 1600 nM; with Mu opioid receptor (MOR) it was 3740 nM.
For the substance “SEQ ID NO. 18: NH2-Tyr-Sar-(4-NO2)Phe-Leu-Arg-NMA-NH2 (peptide)”, the Activity (EC50, nM), cAMP assay in assay [1] came out at 1.77 nM.
